Assay results as given in publication PMC11542851 (PLOS Pathogens, 2024).

B1: C68.279 (antibody, V domains shown)
VH: EVQLVQSGAEVKKPGESLKISCKGSGYSFNYYWIGWVRQMPGKGLEWMGIIYPGDSDARYSPSFQGQVTISADKSISTAYLQWSSLKASDTAMYYCGRLVGYSHDLYFDYWGQGTLVTVSS
VL: not shown
B2: C68.256 (antibody, V domains shown)
VH: QVQLQESGPGLVKPSETLSLTCSVSGGSISSSSSYWGWIRQPPGKGLEWIGNIDYSGSTYYNPSLKSRVTISVDTSKNQFSLKLSSVTAADTAVYFCARGADYGPYFDYWGQGALLTVSS
VL: QSALTQPASVSGSPGQSITISCTGTSSDVGSYNLVSWYQHHPGKAPKLMIYEVSKRPSGVSNRLSGSKSGNTASLTISGLQAEDEADYYCSSYAGSSTFVVFGGGTKLTVL
B3: C68.233 (antibody, V domains shown)
VH: QVQLVQSGPEVKKPGTSVKVSCKASGFTFTTSAVQWVRQARGLRLEWIGWIVVGSGNTNYGQKFQERVTITRDMSTSTAYMELSSLRSEDTAVYYCAAPHCNRTNCHDGFDIWGQGTMVTVS
VL: EIVLTQSPGTLPLSPGERATLSCRASQSVRSSYLAWYQQKPGQAPRLLIYGASSRATGIPDRFSGSGSGTDFILTISRLEPEDFAVYSCQQYGSSPWTFGQGTKVEIK
B4: C68.225 (antibody, V domains shown)
VH: EVQLVQSGAEVKKPGESLRISCKGSGYSFTNYWISWVRQMPGKGLEWMGRIDPSDSYTDYSPSFQGHVTISTDKSISTAYLQWSSLKASDTAMYYCARPRGIAAVGTGYNWLDPWGQGTLVIVSS
VL: DIQMTQSPSTLSASVGDRVTITCRASQSINSWLAWYQQKPGKAPKLLIYDASSLESGVPSRFSGSGSGTEFTLTISSLQPADFATYYCQQYNALYTFGQGTKLEIK
B5: C68.102 (antibody, V domains shown)
VH: QLQLQESGPGLLKPSETLSLTCTVSGGSISSSRYYWGWIRQPPGKGLEWIGSVYYSGTTYYNPSLKSRVTISVDASKNQFSLRLSSVSAADTAVYYCARRLGAIWDWGQGTRVTVSS
VL: DIQLTQSPSSLSASVGDRVTITCRASQGISNSLAWYQQKPGKAPKLLLYAASTLESGVPSRFSGSGSGTDYTLTISSLQPEDFAAYYCQQYYSTPTFGQGTKVEIK
B6: C68.138 (antibody, V domains shown)
VH: EVQLVQSGAEVKKPGESLRISCKGSGYSSTNYWISWVRQMPGKGLEWMGRIDLSDSYTNYSPSFQGHVTISADKSISTAYLQWSSLKASDTAIYYCARLLTTVTTDWFDPWGQGTLVTVSS
VL: DIQMTQSPSSLSASVGDRVTITCRASQSISNYLNWYQQKPGKAPKLLIYTASSLQSGVPSRFSGSGSGTDFTLSISSLKPEDFATYFCQQSYNAPPYTFGQGTKLQIK
B7: C68.100 (antibody, V domains shown)
VH: EVQLVQSGAEVKKPGESLRISCKGSGYIFNSYWIIWVRQMPGKGLEWMGRIDPSDSYTNYSPSFQGHVTMSVDKSINTAYLQWSSLKASDTAMYYCARVRFGELSWDTFDYWGQGTLVTVSS
VL: DIQVTQSPSSLSASVGDRVTITCRASQSMSYYLNWYQQKPGKAPKLLISAASSLQSGVPSRFSGSGSGTDFTLTISSLQPEDFATYYCQQSYSTPYTFGQGTKLEIK
B8: C68.136 (antibody, V domains shown)
VH: EVQLLESGGGLVQPGGSLRLSCAASGFTFSIYAMSWVRQAPGKGLEWVSGISGSGGSTYYADSVKGRFTLSRDNSKNTLFLQMNSLRAEDTAVYYCAKGEGSVVVVSAGVWGKGTTVTVSS
VL: DIQLTQSPSSLSASVGDRITITCQASQDISKSLNWYQQKPGKAPKVLIYDASNLETGVPSRFSGSGSGTDFTFTISSLQPEDIATYYCQQYDNLRLTFGGGTKVEIK
B9: C68.180 (antibody, V domains shown)
VH: EVQLVESGGGLVKPGGSLRLSCAASGFTFIDYHMSWIRQAPGKGLEWVSYITTTSSYANYADSVKGRFTISRDNAKNSLFLQMNSLRADDTAVYYCARDRGYDLRFDYWGQGTLVTVSS
VL: DIQMTQSPSSLSASVGDRVTITCQASQGISNYLNWYQKKPGKAPKLLIYDASNLKTGVPSRFSGSGSGTDFTFTISSLQPEDIATYYCQQYDSLPLTFGGGTKVEIK
B10: C68.281 (antibody, V domains shown)
VH: QVQLVQSGAEVRKPGASVKVSCKASGYNFTSYYMHWVRQAPGQGLEWMGIINPSDGSASYAQKFQGRVTMTRDSSTSTVYMELSSLRSDDTAVYFCARGGRILQWFPYFFDYWGQGTLVTVSS
VL: EIVLTQSPGTLSLSPGERATLSCRASQSVSIRYLAWYQQKPGQAPRLLIYGASSRATGIPDRFSGSGSGTDFTLTISRLEPEDFAVYYCQQYETFGQGTKVEIK
B11: C68.170 (antibody, V domains shown)
VH: QVQLQESGPGLVKPSQTLSLTCTVSGGSISSGGYYWSWIRQHPKKDLEWIGYIYNSGSTYYNPSLKSRVTISIDTTKNQFSLKLSSVTAADTALYYCARSVGAAAQWGGEFDYWGQGTLVTVSS
VL: DIQLTQSPSSLSASVGDRVTITCQASQDISNYLNWYQQKPGKAPKLLIYDVFILQAGVPSRFSGSGSGTDFTFTISSLQPEDIATYYCQQYNHLITFGGGTKVEIK
B12: C68.123 (antibody, V domains shown)
VH: EVQLVESGGGLVQPGGSLRLSCSASGFTFSSYTLHWVRQAPGKGLEYVSSISSNGGSTYYADSVKGRFTISRDNSKNTLFLQMSSLRAEDTAIYYCVKGVWLHDFWSGYPSRWGQGTPVTVSS
VL: DIQLTQSPSTLSASVGDRVTITCRASQSISNWLAWYQQKPGKAPNLLIYDASSLESGVPSRFSGSGSGTEFTLTISSLQPDDFATYYCQQYNSYPWTFGQGSKVDIK
B13: C68.236 (antibody, V domains shown)
VH: QVQVVQSGAELKKPGASVKVSCKAPGHTFTIYAMHWVRQAPGQRLEWMGWINAGNGDTKYSQKFQGRVTITRDTSASTAYMELSSLRSEDTAVYYCASSGSRRFQVDYFDYWGQGTLVTVSS
VL: DIQLTQSPSTLSASVGDRVTITCRASQSIRSWLAWYQQKPGKAPKLLIYDASSLESGVPSRFSGSGSGTEFTLTISSLQPDDFATYYCQQYNSYPWTFGQGTKVEIK
B14: C68.220 (antibody, V domains shown)
VH: QVQLLQSGAEVKKPGASVKVSCKASGYTFTIYAMHLVRQAPGQRLEWMGWINTGNGDTKYSQKFQGRVTITRDTSASTAYMELSSLRSEDTAVYYCAISGSRHFQVDYFDYWGQGTLVTVSS
VL: DIQMTQSPSTLSASVGDRVTITCRASQSISRWLAWYQQKPGKAPKLLIYDASSFESGVPSRFSGRGSGTEFTLTISSLQPDDFATYYCQQYKSYPWTFGQGTKVEIK
B15: C68.263 (antibody, V domains shown)
VH: EVQLVESGGGVVQPGRSLRLSCAASGFTFSTYAMHWVRQAPGKGLEWVAVISFDGSNTYYADSVKGRFTISRDNSKNTLYLQMNSLRAEDTAVYYCAKDSYYSDRSDYYWRSYGYFGLWGQGTLVTVSS
VL: DIQLTQSPSTLSASVGDRVTITCRASQSISSWLAWYQQKPGKAPKLLIYDASSLESGVPSRFSGSGSGTEFTLTISSLQPDDLATYYCQQYRSYSGTFGQGTKVEIK
B16: C68.194 (antibody, V domains shown)
VH: QVQLVQSGAELKRPGASVKVSCKAPGHTFTIYAMHWVRQAPGQRPEWMGWINAGNGDTKYSQKFQGRVTITRDTSASTAYMELSSLRSEDTAVYYCATSGSLRFQVDYFDHWGQGTLVTVSS
VL: DIQLTQSPSTLSASVGDRVTITCRASQSISSWLAWYRQKPGKAPKLLIYDASNLESGVPSRFSGSGSGTEFTLTISSLQPDDFATYYCQQYNSYPWTFGQGTKVEIK

Each binder was assayed against SARS-CoV-2 RBD subunit (recombinant) (SARS-CoV-2 Wuhan-Hu-1, UniProt P0DTC2).

Row | Binder | binding result
1 | B1 | binds
2 | B2 | binds
3 | B3 | binds
4 | B4 | binds
5 | B5 | binds
6 | B6 | binds
7 | B7 | binds
8 | B8 | binds
9 | B9 | binds
10 | B10 | binds
11 | B11 | binds
12 | B12 | binds
13 | B13 | binds
14 | B14 | binds
15 | B15 | binds
16 | B16 | binds
